# Experimental data: EP4755920A1
# B1: IL4R-CHI-07 (antibody, V domains shown)
# VH: QVQLQQSGAELVKPGASVKLSCKASGYTFTEYTIHWVKQRSGQGLEWIGWFYPGRGSIKYNEKFKDKATLTADKSSSTVYMELSRLTSEDSAVYFCTRHEYRGSNYAMDYWGQGTSVTVSS
# VL: DVLMTQTPLSLPVSLGDQASISCRSSQSIVHSSGNTYLQWYLQKPGQSPKLLIYKVSNRFSGVPDRFSGSGSGTDFTLKISRVEAEDLGVYYCFQGSHVPPTFGGGTKLEIK
# B2: IL4R-CHI-04 (antibody, V domains shown)
# VH: DVQLQESGPGLVKPSQSLSLTCTVTGYSITSDYAWNWIRQFPGNKLEWMGYISYSGSSSYNPSLKSRISITRDTSKNQFFLQLNSVTTDDTATYYCAGGGLRRRGLFDYWGQGTTLTVSS
# VL: QIVLSQSPAILSASPGEKVTMTCRATSSVTYMHWYQQKPGSSPKPWIYATSNLASGVPARFSGSGSGTSYSLTISRVEAEDTATYYCQQWSSIPLTFGAGTKLELK
# B3: IL4R-CHI-14 (antibody, V domains shown)
# VH: EVMLVESGGGLVKPGGSLKLSCAASGFTFSSYAMSWVRQTPEKRLEWVAIISGGGDSTYYPDSVKGRFTISRDNAKNTLYLQMSSLRSEDTALYFCARLHYWYFDFWGTGTTVTVSS
# VL: DIQMTQSSSSFSVSLGDRVTITCKASEDLYNRLAWYQQKPGNAPRLLISGATSLETGVPSRFSGSGSGRDYTLIITSLQTEDVATYYCQQYWRNPYTFGGGTKLEIK
# B4: IL4R-CHI-13 (antibody, V domains shown)
# VH: EVQLQQSGPVLVKPGASVKMSCKASGYTFTDYYMNWVKQRHGKSLDWIGTINPYNGGTGYNQKFKGKATLTVDKSSSTAYMELNSLTSEDSAVYFCARSLLRRRGAMDYWGQGTSVTVSS
# VL: DIVLTQSPASLVVSLGQRATISCRASKSVSTSGYGYIHWYRQKPGQPPKLLIYLVSNLESGVPARFSGSGSGTDFTLNIHPVEEEDAATYYCQHIRELYTFGGGTKLEIK
# B5: IL4R-CHI-17 (antibody, V domains shown)
# VH: QAYLQQSGAELVRPGASVKMSCKASGYTFTSYNMHWAKQTPRQGLEWIGSIYPGNGDTSYNQKFKGKATLTVDKSSSTAYMQLSSLTSEDSAVYFCARGGRLRRGDWFAYWGQGTLVTVSA
# VL: DIQMTQSPASLSASVGETVTITCRASENIYSYLIWYQQKQGKSPQLLVYDAKTLAEGVPSRFSGSGSGSQFSLKINSLQPEDFGTYYCQHHYGTPLTFGGGTKLELK
# Molecular target: Full-length cynoIL4Rα on monkey IL4Rα-FlpinCHO cells (cynomolgus monkey)
# Sequence (A0A2K5 entry or part of it limits assumed): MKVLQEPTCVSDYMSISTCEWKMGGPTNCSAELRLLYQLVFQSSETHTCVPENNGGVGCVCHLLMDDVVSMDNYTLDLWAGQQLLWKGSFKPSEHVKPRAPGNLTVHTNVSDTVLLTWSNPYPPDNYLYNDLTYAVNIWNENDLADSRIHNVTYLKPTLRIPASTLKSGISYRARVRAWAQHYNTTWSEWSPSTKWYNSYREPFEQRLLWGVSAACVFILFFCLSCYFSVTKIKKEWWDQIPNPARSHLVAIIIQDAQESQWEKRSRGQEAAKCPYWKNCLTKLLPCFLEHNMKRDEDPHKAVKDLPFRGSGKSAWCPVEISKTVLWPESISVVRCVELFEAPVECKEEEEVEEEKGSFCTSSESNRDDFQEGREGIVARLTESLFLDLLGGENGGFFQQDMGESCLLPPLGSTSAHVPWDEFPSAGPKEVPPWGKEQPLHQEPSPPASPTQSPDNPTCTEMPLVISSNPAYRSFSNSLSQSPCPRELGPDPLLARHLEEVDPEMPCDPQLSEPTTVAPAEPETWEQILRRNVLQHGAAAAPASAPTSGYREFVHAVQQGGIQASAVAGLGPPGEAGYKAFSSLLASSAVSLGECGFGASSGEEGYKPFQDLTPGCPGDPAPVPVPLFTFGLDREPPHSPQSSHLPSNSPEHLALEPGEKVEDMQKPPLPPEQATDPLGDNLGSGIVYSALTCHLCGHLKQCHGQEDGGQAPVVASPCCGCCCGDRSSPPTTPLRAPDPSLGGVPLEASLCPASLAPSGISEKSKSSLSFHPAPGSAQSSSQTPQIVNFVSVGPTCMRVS
# Experiment: flow cytometry on monkey IL4Rα-FlpinCHO cells
row,Binder,Emax
1,B1,58
2,B2,82
3,B3,97
4,B4,74
5,B5,68
